In patent US20260055143A1, “HIGH AFFINITY VARIANTS OF SH2 DOMAINS” (Axoiya Inc., priority 2023, published 2026):

The substances below were run against pTyr-containing peptide (pEZ) derived from Ezrin, PPV{pTyr}EPVS (assay: fluorescence polarization; the wt is the reference).

Fold Change [fold]	Substance
1	Fes SH2 domain, wild type (Fes^wt) (from UniProt P07332 460-549)

The substances below were run against phosphopeptide (assay: competition binding).

Substance	IC50 [nM]
P85A_N wt	540
Btk sSrc	810
Lck sSrc	12
Abl1 sFes	120
Abl1 sSrc	290
P55G_N sFes	1900
Lck sFes	70
Grb2 sSrc	11
P85B_N wt	> 20000
Abl1 wt	1600
Nck1 sFes	> 20000
Src sSrc	19
Grb2 wt	560
Vav2 sSrc	872
Lck wt	360
Vav wt	> 20000
P85A_N sSrc	2300
Blk wt	> 20000

The next lines start with the values.

IC50 [nM]	Substance
940	Blk sFes
110	Blk sSrc
> 20000	Vav2 wt
90	Grb2 sFes
> 20000	Btk wt
> 20000	Shc1 wt
100	Nck1 sSrc
2000	Nck1 wt
1100	Btk sFes
> 20000	Vav2 sFes
0.9	P85A_N sFes
27	Crkl sSrc
3100	Crkl wt
220	P85B_N sFes
> 20000	Vav3 wt
> 20000	P85B_N sSrc
950	Vav sSrc
> 20000	Shc1 sFes
7200	Shc1 sSrc

These substances were tested against Phosphopeptide KQVE{pTyr}LDLDLD (assay: competitive ELISA, soluble phosphopeptide titrated against the immobilized peptide).

IC50 [nM]	Substance
14	Ptn11_N^αA-2-Arg, Ptn11_N SH2 domain with the αA-2 position mutated to Arg (designed binder)

The substances below were run against Phosphopeptide PPPT{pTyr}TEVDP in the same assay as above.

IC50 [nM]	Substance
1100	Ptn11_C^sFes/αA-2-Arg (designed binder)

What follows are substances tested against pTyr-containing peptide (pEZ) derived from Ezrin, PPV{pTyr}EPVS (assay: fluorescence polarization, purified SH2 domain with fluorescein-labelled ezrin phosphopeptide).

IC50 [nM]	Substance
1300	Fes SH2 domain, wild type (Fes^wt) (from UniProt P07332 460-549)

These substances were tested against pMT peptide EEPQ{pTyr}EEIPIY (assay: competitive phage ELISA (IC50), soluble pMT peptide against the immobilized peptide).

Substance	fold enhancement of affinity over wt [fold]
Src^sFes, Src SH2 domain with the sFes superbinder motif grafted (designed binder)	125

The substances below were run against pTyr-containing peptide (pEZ) derived from Ezrin, PPV{pTyr}EPVS (assay: competitive phage ELISA (IC50), soluble Ezrin phosphopeptide against the immobilized peptide).

fold enhancement of affinity over wt [fold]	Substance
650	Fes^sSrc, Fes SH2 domain with the sSrc superbinder motif grafted (designed binder)
